Results from the RNAGym collection of RNA variant scans (doi:10.1073/pnas.2313332121).
Variants at the floor of the assay were thinned out.

B1: TPR 5TU (parent)
chain: GGAUCUUCUCGAUCUAACAAAAAAGACAAAUCUGCCACAAAGCUUGAGAGCAUCUUCGGAUGCAGAGGCGGCAGCCUUCGGUGGCGCGAUAGCGCCAACGUUCUCAACUAUGACACGCAAAACGCGUGCUCCGUUGAAUGGAGUUUAUCAUG

Variants of: B1
Assay: polymerase ribozyme fitness, log enrichment relative to wild type (log ratio); higher = more active; in vitro selection for triplet polymerase activity
Procedure, shortened: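 A heterodimeric triplet polymerase ribozyme had each of its subunits mutagenized by PCR into a library, which was transcribed. One round of in vitro selection, done in triplicate, annealed each library with a biotinylated primer, its partner subunit and triplets, then incubated it frozen at −7 °C before gel excision of extended constructs, streptavidin-bead capture and RT-PCR. Fitness is the logarithm of genotype enrichment relative to wild-type enrichment, based on Illumina sequencing of inputs and outputs and inverse-variance-weighted replicate averages. A base-2 logarithm is used, and genotypes were kept only with ≥10 input reads and ≥1 read per output.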

Variant | polymerase ribozyme fitness (log ratio)
A29G C103G U104G | ≤ -4.2
A29C A52G C87U G100C A138U U139A A147C | ≤ -4.2
A28G A41C G42U A66G C96G G133U U144G | -4.13
C27U U55A G68U C85G | ≤ -4.2
C27U U33C A73G C85U | -0.859
A29C A37C G74A A97G U130A | ≤ -4.2
A29C A37G G65C C75G U77A A97G C118U C123U | ≤ -4.2
A29G C95G U127G | ≤ -4.2
A29C C57G G71A U90C | ≤ -4.2
A29C A49G C69G U77G C79U C116U U146A | ≤ -4.2
A28U A40C C75U G83U G133A | ≤ -4.2
C27U G42A G67U C69A G117A A150C | ≤ -4.2
C27U C54U G58A A106G | -0.532
A29C U33A A41U G42A G83C C96U C108G | ≤ -4.2
A28U C43A U109G G141C | ≤ -4.2
A28U C87A C131G | ≤ -4.2
A29C C35U U53A C76G G92A C99A A122G G124U | ≤ -4.2
A28G G88U G92A A98G G133U U144A | ≤ -4.2
A29C A47U C76G C79A A97U C99A C125G U134A U144G | ≤ -4.2
A29U A37U C72G C95U C114U G143U | ≤ -4.2
A29G C43A G48C C93G G126C | ≤ -4.2
A29C U56A G80U A121G | ≤ -4.2
A28G G94C G100U U134G | ≤ -4.2
A28U G67A G74A G86C C108A C132A | ≤ -4.2

Variant | polymerase ribozyme fitness (log ratio)
A28G C38U U61A G67U C85G A98G | -3.98
A29C A49C U61A A138C | ≤ -4.2
C27U U44G U56A G58C U61A G86U U135C | ≤ -4.2
A28C U45A G88A C96A G100A G143A | ≤ -4.2
A29C U45A C95G | ≤ -4.2
A28U G67C U77A U90C C95U C105U A142G | ≤ -4.2
C27U C85A A91U G143A | ≤ -4.2
A28C U33G G50A C95A U134A | ≤ -4.2
A29C A30U G42U C93U C105G U139G | ≤ -4.2
C27U G83A C125U U130G U135G | ≤ -4.2
A28U G88A A107G A142C U151A | ≤ -4.2
A28C U33G U77C U90G C93A U148C G152A | ≤ -4.2
A28U C79G | ≤ -4.2
A28G C93U C118A | ≤ -4.2
A28U G59U G74U C85G A113U C114A U127A | ≤ -4.2
A28C A41U C43U G46C C85A U130G U135C | ≤ -4.2
A29C C32U C35G A66U C87A G94C A107U C125U | ≤ -4.2
A28U U33G C43G A47C U55G U56A G84A C87G A106G A107C G133U G140U | ≤ -4.2
A29U A37G C54U C87G C116A | ≤ -4.2
A28U G58C C96A A97G U144A U145G | ≤ -4.2
A28C A39U G48C G70A G84C C93G G140U | ≤ -4.2
A28G C38A C54G G88C C103A | ≤ -4.2
C27U C118U | -1.44
C27U C32A G46U A47C U53A C87G | ≤ -4.2

Variant | polymerase ribozyme fitness (log ratio)
A28G A39U U53A G71A C93A | ≤ -4.2
A29G U31C C36U C54G U82C G86C C93U | ≤ -4.2
A28U G70U G83C C131U | ≤ -4.2
C27U U61G U82G A89U A91G G100A A113U G140U | ≤ -4.2
A28U A39U | ≤ -4.2
C27U U53A C85G | -3.88
C27U U55A | -0.901
A29G U56A U77C | ≤ -4.2
A29C U44A G59U C72U C131G | ≤ -4.2
A28C A40U U53A G84U A115U | ≤ -4.2
A28U G50C C54U C95A A107U G143U | ≤ -4.2
A29C G48C C79A A122G G124U U144A U145G G152U | ≤ -4.2
C27U C87U A142U | -3.03
A29C C51U G83C C95U A137G G143C | ≤ -4.2
A28C A52G C76G A91U U146G | ≤ -4.2
C27U C51U U53A U101G | -3.98
C27U C32A A39U C75U A91C A121C G126C | ≤ -4.2
A29G G46C A47C C132U U146A | -4.16
C27U C93U | -3.3
A28G U33G G34U G59C U104G C118U | ≤ -4.2
A28C G84U G88C A91G G124U | ≤ -4.2
A28C U144G | -4.03
C27U C76G G84U | ≤ -4.2
A28U C79A C87G C96G | ≤ -4.2

Variant | polymerase ribozyme fitness (log ratio)
A29G A73U A91G C99U A115U A137U | ≤ -4.2
A29C G67C A89U G94U | ≤ -4.2
A28C C57U U82C C85G U111G A137U | ≤ -4.2
C27U G65C A66C A73U C93A C108G C129G | -3.81
A28C U56A C72U C76G | ≤ -4.2
A29G C35A U56C C69G G71U A91G A98U A138G | ≤ -4.2
A28U A29G C32U C57G | ≤ -4.2
A29G A52C C57U C93U | ≤ -4.2
A28U C54A G92U C118U G124U C131A A137U | ≤ -4.2
A29G A30U C43U G50A G67U C79G G88U C99A G141A | ≤ -4.2
C27U G58A G59C C99U U102G A120C C125U | ≤ -4.2
A28C U31G G50C A52C G74A G80U G86U A121U | ≤ -4.2
C27U G141C | -2.54
A29C C32A | ≤ -4.2
C27U U56A G84U G86C C114G U145A | ≤ -4.2
C27U G48A C69A C96A A121G | ≤ -4.2
A28G A49C C76U G94U A150G | ≤ -4.2
C27U C35U A49U C51G U53A G86U U151G | ≤ -4.2
A28G A106G U134G | ≤ -4.2
A29C A39G U139A | ≤ -4.2
C27U U45A G71A C75A A89U C118A | ≤ -4.2
A28U A29G A40G C85G U90G U134G | ≤ -4.2
A28C G58C | ≤ -4.2
C27U U55A C99G A138G | ≤ -4.2

Variant | polymerase ribozyme fitness (log ratio)
A28C A52G G88C A89G U101C C105G | ≤ -4.2
A28U C35U A91U C132U | -3.89
A29G A41C A47G C85G G92U U104G A137G G141U | ≤ -4.2
C27U C76U G83A | -1.55
A28U U55G C85G G88A A89U C103U G143C | ≤ -4.2
A29G G50A A52C U101G G133C | ≤ -4.2
A28C A47C G62C C108G A122C | ≤ -4.2
A29C A37U C108U | -4.09
A28C A30U C35G C87A C105U | -3.84
A28C A49U U56A G65A G70C A91U G94C G117C U151A | ≤ -4.2
A28C C57U G84A C96U G124U | ≤ -4.2
A28C U134A | ≤ -4.2
A28C G84A C87G C96G A121U | ≤ -4.2
A28U U45A C57U A60G C75G G94A G126C | ≤ -4.2
A28G U53A G84U G140A | ≤ -4.2
A29C C36G U78C C93G A97G | ≤ -4.2
A28G A41G U45A G94C A97U | -3.76
C27U G68U G74U U77C G80C U104C C116G | ≤ -4.2
A28G C57A U61A C76A G88A C93U U102G | ≤ -4.2
C27U C35U U53A U56G C57A C93A A113C A122G U146A C149G | ≤ -4.2
A28U G42U G59C A64C U78C C87A | ≤ -4.2
A28U C87G U127A G133C U139A | -4.15
A29G G50A G67U C75G C85A C123G C125G C132U A142C | ≤ -4.2
C27U G34U C93U G112C U148G | ≤ -4.2

Variant | polymerase ribozyme fitness (log ratio)
C27U G50C C87A C105G | ≤ -4.2
A28U G48C C54U G74U U77A G86U A98U C103G | ≤ -4.2
A28U U45A C57U A60C G84U A98U G117C | ≤ -4.2
A28G C32U G50A C85A | ≤ -4.2
C27U C57U G94A C95A G143A | ≤ -4.2
A28U C36G C85G G94A C131G | ≤ -4.2
C27U C63U C76U G81C U101G U146G | -3.39
A29C A37C A64G C87A C95G U146G | ≤ -4.2
C27U C75U | -1.25
A28U G83A C116U U145A | ≤ -4.2
A28U C85A | -4.11
C27U G81U C85U | -2.15
A29G C69U | ≤ -4.2
A28G A106C G133U A142C | ≤ -4.2
A29G A60C A89G A110U G143A | ≤ -4.2
A29C A52C C54U U82C U90A G136A | ≤ -4.2
A28C C32G C63U | ≤ -4.2
C27U C51U G83A | -2.56
A29C U55A C57U U90G A91C U148G | ≤ -4.2
A29C A52C G88U | ≤ -4.2
A28U G88A G94A C99G C103G U104A A107G | ≤ -4.2
A28U A47C C63G G86C C129A | ≤ -4.2
A28U A29U G74C C79G A89C C118A A120U A122G C125G | ≤ -4.2
A28U A37C U139C U151G | ≤ -4.2

Variant | polymerase ribozyme fitness (log ratio)
A28U C95A | -3.41
C27U U44A G46A C54A C116G A147U | ≤ -4.2
A28G A29U A89C G141C | ≤ -4.2
A28C C57A A66U G71A C87A U102G A138C | ≤ -4.2
C27U A120G C125A | -1.81
A28U U44A C87G A106C | ≤ -4.2
A28G G84U | -4.02
A28U C87U A106U C108U A119C U148C | ≤ -4.2
A29C U55A C75A C85U G141C | ≤ -4.2
C27U C72U G88A G94A G152A | -4.19
A28G A29U | -3.79
A29C G84A | -4.17
A28U U61A G74C | ≤ -4.2
A28G G42C C43G U56C C85G G92A G124U A150U | ≤ -4.2
A29C U53A G84C C93U A121G C125G | ≤ -4.2
A28U A40U A49C G68U U90G C96U A107G A110C | ≤ -4.2
A29G U55G G94A C108A A119G | ≤ -4.2
A29C G42U C54G C93G G94C A98U G136A A142G G152U | ≤ -4.2
A28C A39C C54G U61A C99U | ≤ -4.2
A29C C85U | -3.79
A28U A147C U151C G152C | ≤ -4.2
A29U A37C G80A G88C G133U | ≤ -4.2
A29C A39C U53A A122G C123A U135G U146A | ≤ -4.2
